Changes are numbered by the printed parent chain. Numbers in names are those of the source.
T1: human GDP-mannose 4,6-dehydratase (hGMD) (Homo sapiens, UniProt O60547)
T1 construct: gene GMDS; purified enzyme, wild type and point variants; homodimer in crystals (two to four homodimers per asymmetric unit); construct borders, tags and host only in supplement
T1 sequence (O60547 2-372 limits assumed): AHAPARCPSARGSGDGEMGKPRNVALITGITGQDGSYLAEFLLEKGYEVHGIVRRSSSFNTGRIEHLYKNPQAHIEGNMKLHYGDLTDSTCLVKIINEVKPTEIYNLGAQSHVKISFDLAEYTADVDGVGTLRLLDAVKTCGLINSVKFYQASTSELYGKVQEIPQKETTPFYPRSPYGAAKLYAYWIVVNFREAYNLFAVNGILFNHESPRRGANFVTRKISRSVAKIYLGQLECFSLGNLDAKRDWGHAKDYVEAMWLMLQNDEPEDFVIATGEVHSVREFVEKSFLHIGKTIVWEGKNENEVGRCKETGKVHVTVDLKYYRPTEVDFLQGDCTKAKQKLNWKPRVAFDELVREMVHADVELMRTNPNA

T2: human GDP-mannose 4,6-dehydratase (hGMD) (Homo sapiens, UniProt O60547, E157Q)
T2 construct: gene GMDS; purified enzyme, wild type and point variants; homodimer in crystals (two to four homodimers per asymmetric unit); construct borders, tags and host only in supplement
T2 sequence (O60547 2-372 E157Q limits assumed): T1 sequence (O60547 2-372 limits assumed) with E156Q

B1: human GDP-mannose 4,6-dehydratase (hGMD) (Homo sapiens) (protein)
chain: T1 sequence (O60547 2-372 limits assumed)
notes: purified enzyme, wild type and point variants; homodimer in crystals (two to four homodimers per asymmetric unit); construct borders, tags and host only in supplement
B2: human GDP-mannose 4,6-dehydratase (hGMD) (Homo sapiens; S156A) (protein)
chain: T1 sequence (O60547 2-372 limits assumed) with S155A
notes: as for B1

Key:
[1] = target: T1, human GDP-mannose 4,6-dehydratase (hGMD); test: isothermal titration calorimetry; format: binding
[2] = target: T2, human GDP-mannose 4,6-dehydratase (hGMD); test: X-ray crystal structure, […] Å; settings: GDP-mannose also bound; NADP+ binding site
[3] = substrate: Nc1nc2c(ncn2[C@@H]2O[C@H](COP(=O)(O)OP(=O)(O)O[C@H]3O[C@H](CO)[C@@H](O)[C@H](O)[C@@H]3O)[C@@H](O)[C@H]2O)c(=O)[nH]1; test: initial rate measurements; format: biochemical, Homo sapiens; settings: 37 °C
From the text: initial rate measurements on human GDP-mannose 4,6-dehydratase (hGMD)

Row | Molecule | Kd [1] [nM] | X-ray crystal structure, 1.47 Å [2] | Km [3] [µM] | kcat [3] [s⁻¹]
1 | Nc1nc2c(ncn2[C@@H]2O[C@H](COP(=O)(O)OP(=O)(O)O[C@H]3O[C@H](CO)[C@@H](F)[C@H](O)[C@@H]3O)[C@@H](O)[C@H]2O)c(=O)[nH]1 [GDP-4″-deoxy-4″-fluoro-mannose] | 1600 | – | – | –
2 | NC(=O)c1ccc[n+]([C@@H]2O[C@H](COP(=O)(O)OP(=O)(O)OC[C@H]3O[C@@H](n4cnc5c(N)ncnc54)[C@H](OP(=O)(O)O)[C@@H]3O)[C@@H](O)[C@H]2O)c1 [NADP^+] | – | each monomer has bound GDP-mannose (purple) and NADP^+ (yellow) | – | –
3 | B1 | – | – | 8 ± 1 | 0.42 ± 0.08
4 | B2 | – | – | 127 ± 5 | 0.05 ± 0.01
